Laboratory results taken from patent US20240218057A1 (ROCKEFELLER UNIVERSITY, published 2024).
Substitutions are numbered along the chain they refer to.

B1: C932 (antibody, V domains shown)
VH: QVQLVESGGSVVQPGKSLRLSCAGSGFAFSTYGMHWVRQAPGKGLEWVAVISSDGGNKYYADSVKGRFTISRDNYENTLYLQMNSLGAEDTAVYYCAKVALRGVFISLYYGMDVWGQGTTVTVSS
VL: SYELTQPPSVSVTPGQTASITCSGDKLGDKYACWFLQKPGQSPLLVIYQDTKRPSGIPDRLSGSKSGNTATLTISGTQAMDEADYYCQTWDSSAVVFGGGTKLTV
B2: C934 (antibody, V domains shown)
VH: QVQLVQSGAEVKKPGASVKVSCKASGYTFTDYYIHWVRQAPGQGLEWMGWINPNSGGTNYAQKFQGRVTMTRDTSISTAYMDLSRLRSDDTAVYYCARDVIITMGRGVVFRMDVWGQGTTVTVSS
VL: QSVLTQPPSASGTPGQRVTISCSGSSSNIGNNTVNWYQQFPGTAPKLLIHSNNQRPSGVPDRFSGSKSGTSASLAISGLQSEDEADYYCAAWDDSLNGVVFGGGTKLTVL
B3: C936 (antibody, V domains shown)
VH: EVQLVESGGGLIQPGGSLRLSCAASGFTVSSNYMSWVRQAPGKGLEWVSVIYSGGSTFYADSVKGRFTISRDNSKNTLYLQMNSLRAEDTAVYYCARDLGTGLFDYWGQGTLVTVSS
VL: DIQLTQSPSFLSASVGDRVTITCRASQGISSYLAWYQQKPGKAPKLLIYAASTLQSGVPSRFSGSGSGTEFTLTISSLQPEDFATYYCQQLDSYPPGTFGPGTKVDIK
B4: C937 (antibody, V domains shown)
VH: B3 VH with G26E, F27L, S53P
VL: B3 VL with Y87F, Q90L, D92N, Y94N
B5: C938 (antibody, V domains shown)
VH: QVQLVESGGGVVQPGRSLRLSCAASGFTFRSHAMHWVRQAPGKGLEWVAIISSDGFNKYYADSVKGRFTISRDNSKNTLYVHMNSLRVEDTAIYYCASGLLWFETREISGAPDYGMAVWGQGATVTVSS
VL: DIQMTQSPSSLSASVGDRVTITCRASQNISNFLNWYQQKPGKAPKLLIYAASSLQSGVPSRYSGSGSGTDFTLTISSLQAEDFATYYCQQSYSTPLTFGGGTKVEIK
B6: C939 (antibody, V domains shown)
VH: QVQLVESGGGVVQPGRSLRLSCAASGFTFSSYAMHWVRQAPGKGLESVALISHDGSNKYHADSVKGRLTISRDTSKNTLYLQMDSLRPEDTAVYYCASGLLWFETAGGSGAPDYGMAVWGQGTTVTVSS
VL: DIQMTQSPSSLSASVGDRVTITCRASQSISTYLNWYQQKPGRAPKFLIYAASSLQSGVPSRFSGSGSGTDFTLIISGLQPEDFATYFCQQSYNTPLTFGGGTKVEIK
B7: C951 (antibody, V domains shown)
VH: QVQLQESGPRLVKPSGTLSLTCAVSGGSISTTNWWSWVRQPPGKGLEWIGEIHHSGNTNYNPSLKSRVTISVDRSKNQFSLKLSSVTAADTAVYFCARDGGRPGDPFDIWGQGTMVTVSS
VL: QSALTQPASVSGSPGQSITISCTGTSSDVGGYNYVSWYQQHPGKAPNLMIYDVSDRPSGVSNRFSGSKSGNTASLTISGLQAEDEADYYCNSFTSNSTRVFGTGTKVTV
B8: C913 (antibody, V domains shown)
VH: EVQLVESGGVVVQPGGSLRLSCAASGFTFDDYSMHWVRQVPGKGLEWIAVIFWDGTSTYYADSVKGRFTISRDNSKKSLYLQMNSLRSEDTALYYCAKDSEDCSSTSCYVDHWGQGTLVTVSS
VL: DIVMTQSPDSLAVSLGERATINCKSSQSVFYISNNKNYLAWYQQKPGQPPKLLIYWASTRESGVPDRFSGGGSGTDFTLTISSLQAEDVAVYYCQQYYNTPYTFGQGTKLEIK
B9: C926 (antibody, V domains shown)
VH: QVQLVESGGGVVQPGRSLRLSCAASGFGLITYSMHWVRQAPGKGLEWVGLISFDGNTTYYADSVRGRFTISRDNLANILYLQMNSLRPDDTALYYCARDKRGVIRGLLNFWGQGSLVTVSS
VL: DIVMTQSPDSLAVSLGERATINCKSSQSLLPSSNSNNYLAWYQQKSGQPPNLLIYWASTRESGVPDRFSGSGSETDFSLTISNLQAEDVAVYYCQQYYNTPHTFGGGTKVEI
B10: C935 (antibody, V domains shown)
VH: QVQLVESGGGVVQPGRSLRLSCAATGFTFSSYGMHWVRQAPGKGLEWVALIWYDGSNQYYVDSVKGRFTISRDNSKKTLYLQMNSLRVEDTAVYYCARDFSNSDMVTLSDAFDIWGQGTMVTVSS
VL: DIQLTQSPSFLSASVGDRVTIACRASQGISSYSSYLAWYQQKPGKAPKLLIYAASTLQSGVPSRFSGSGSGTEFTLTISSLQPEDFATYYCQQLNSYPLFTFGPGTKVDIK
B11: C940 (antibody, V domains shown)
VH: QVQLQESGSGLVKPSQTLSLTCAVSGGSASSGGYSWSWIRQPPGKGLEWIGYIYHSGSTYYNPSLKSRVTISLDRTKKQFSLKLSSVTAADTAVYYCARFCLSGSHYLFAFDIWGPGTMVTVSS
VL: QSALTQPASVSGSPGQSITISCTATSSDVGGYNFVSWYQQYPGKVPKLLIYDVGNRPSGVSNRFSGSKSGNTASLTISGLQAEDEADYYCSSYTNSSTFFGGGTKLTVL
B12: C941 (antibody, V domains shown)
VH: QVQLVQSGAEVKKPGSSVKVSCKASGGTSRSYPISWVRQAPGQGLEWMGRIIPIVGTANYAQRFQGRVTITADESTGTAYMELSSLRSEDTAVYYCARNRGYSDYGSVYYFDYWGQGTLVTVSS
VL: QSVLTQPPSVSGAPGQRVTISCTGSSSNIGAGYDVHWYQQLPGAAPKLLIYRNINRPSGVPDRFSGSKSGTSASLAITGLQADDEADYYCQSYDSSLSGSVFGGGTKLTV
B13: C942 (antibody, V domains shown)
VH: QVQLVESGGGVVQPGRSLRLSCAASGFTFSSYVMHWVRQAPGKGLEWVAIISSDGNTKYYADSVKGRFTISRDNSKNTLYLQMNSVRTDDTAVYYCARDGTTMTPTDLLTDWGQGTLVTVSS
VL: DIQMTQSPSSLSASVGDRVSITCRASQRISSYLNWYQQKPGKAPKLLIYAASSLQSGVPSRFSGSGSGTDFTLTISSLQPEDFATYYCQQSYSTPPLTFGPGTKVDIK
B14: C943 (antibody, V domains shown)
VH: QVQLVESGGGVVQPGRSLRLSCAASGFPFSSFGMHWVRQAPGRGLEWVALILYDGDNKYYADSVKGRFTISRDNSKNTLYLQMNSLRAEDTAVYYCAKDIGGGSSPPFFDYWGQGTLVTVSS
VL: SYELTQAPSVSLAPGKTARITCGENNIGSKSVHWYQQKPGQAPVLVIYYDSDRPSGIPERFSGSNSGNTATLTISRVEAGDEADYYCQVWDSSSDHVMFGGGTKLTVL
B15: C944 (antibody, V domains shown)
VH: QVQLVESGGGVVQPGRSLRLSCAASGFTFSSYGMHWVRQAPGKGLEWVAVISYDGSYKYYADSVKGRFTISRDNSKNTLYLQMNSLRAEDTAVYYCAKGSGSQLYYYYGMDVWGQGTTVTVSS
VL: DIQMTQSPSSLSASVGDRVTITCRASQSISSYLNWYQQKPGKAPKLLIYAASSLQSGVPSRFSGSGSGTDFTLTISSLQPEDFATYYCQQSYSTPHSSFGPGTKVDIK
B16: C945 (antibody, V domains shown)
VH: QVQLVQSGAEVKKPGASVRISCKASGYTFTNYYMHWVRQAPGQGLEWMGIINPSGGSTTYAPKFQARVTMTRDTSTSTVYMELSSLRSDDTAVYYCARDYVLVPARSGMDVWGQGTTVTVS
VL: EIVLTQSPATLSLSPGERATLSCRASQSVSSYLAWYQQKPGQAPRLLIYDASNRATGIPARFSGSGSGTDFTLTISSLEPEDFAIYYCQQRSNWPYTFGQGTKLEIK
B17: C946 (antibody, V domains shown)
VH: QVQLVQSGAEVKKPGASVKVSCKASGYTFTNYYIHWVRQAPGQGLEWMGIINPDGDSTSYVQKFQGRVTMTRDTSTSTVYMELSSLRSEDTAVYYCARDLVFVPATSAMDVWGKGTTVTVSS
VL: B16 VL with I85V, P95L, Y96F, Q100P, L104V, E105D
B18: C947 (antibody, V domains shown)
VH: QVQLQESGPGLVRPSGTLSLTCAVTGGSISSSDCWSWVRQPPGKGLEWIGEICHGRTSNYNPSLKSPVSISVDKSKNQFSLILSSVTAADKAVYYCARSSRFLPPLPDAFDLWGQGTMVTVSS
VL: QSVLTQPPSVSGAPGQRVTISCTGSSSNIGAGYDVHWYKQLPGTAPKLLIYGNTNRPSGVPGRFSGSKSGTSASLAITGLQAEDEADYFCQSYDTRLSVVFGGGTKLT
B19: C948 (antibody, V domains shown)
VH: EVQLVESGGGLVQPGGSLRLSCAASGFTFSRYDMHWVRQATGKGLEWVSIIGTAGDTYYPGSVKGRFTISRDNAKNSLFLQMNSLRAGDTAVYYCARANYDSSGYHNWFDPWGQGTLVTVSS
VL: DIQMTQSPSSLSASIGDRVTITCRASQNINSYLNWYQQKPGKAPKLLIYAASSLQSGVPSRFSGSGSGTDFTLTINSLQPEDFATYYCQQSYSMPSWTFGQGTKVEI
B20: C949 (antibody, V domains shown)
VH: QVQLQESGPGLVKPLQTLSLTCTVSGGSISNGDYYWSWIRQSPGKGLEWIGNIFYSGATYFNPSLKSRVTLSVDTSKNQFSLKLSSVTAADTAVYYCARVVRVLPAASVDCWGQGTLVTVSS
VL: QSALTQPRSVSGSPGQSVPISCTGTSSDVGGYDYVSWYQQHPGKAPKLIIYDVSERPSGVPDRFSGSKSGNTASLTISGLQAEDEATYYCCSYAGTSVMFGGGTKLTVL
B21: C045 (antibody, V domains shown)
VH: EVQLVESGGGLVQPGGSLRLSCAASGFTFSTYSMNWVRQAPGKGLEWVSYISSSSSTIHYADSVKGRFTISRDNAKNSLYLQMNSLRDEDTAVYYCAREAHDGALTDYGDYLNWFDPWGQGTLVTVSS
VL: SYELTQPPSVSVAPGKTARITCGGTNIGSKNVHWYQQKPGQAPVLVIYYDNDRPSGIPERFSGSNSGNTATLTISRVEAGDEADYYCQVWDTTSDHFYWVFGGGTKLTVL
B22: C050 (antibody, V domains shown)
VH: EVQLVESGGGLFQPGGSLRLSCAASGFSVRNNYVSWVRQAPGKGLEWVSVIYSGGTTYYADSVKGRFTISRDISENTLYLQMNSLRAEDTAVYYCAREGDVEGLHDFWSGYSRDRYYFDYWGQGTLVTVSS
VL: QSALTQPASVSGSPGQSIIISCTGTSGDIGGYNYVSWYQQHPGKAPKLMIYDVSFRPSGVSNRFSGSKSDNTASLTISGLQAEDEADYYCSSFTGNNTRVFGTGTKVTVL
B23: C051 (antibody, V domains shown)
VH: EVQLVESGGGLIQAGGSLRLSCAASGFGVRNNYMSWVRQAPGKGLEWVSVIYSGGTTYYADSVKGRFTISRDNSKNTVFLQMNSLRAEDTAVYYCAREGDVEGFSDLWSGYSRDRYYFDYWGQGTLVTVSS
VL: QSALTQPASVSGSPGQSITFSCTGTSSDVGGYNYVSWYQQYPGKAPKLLIYDVTNRPSGVSDRFSGSKSGNTASLTISGLQAEDEADYYCSSFTSSNTRVFGTGTKVTVL
B24: C052 (antibody, V domains shown)
VH: B23 VH with Q13R, A14P, G28S, R30S, T68N, F79Y, F104Y, S105Y, L107F, T125A
VL: B22 VL with I19T, G27S, I29V, F55N, D70G, S91N, F93Y, G95S
B25: C053 (antibody, V domains shown)
VH: B22 VH with F12I, S28I, R30S, V34M, E46D, I73N, E75K, L104Y, F107S
VL: QSALTQPASVSGSPGQSITISCTGSSSDVGGYNFVSWYQQHPGRAPKLMIYDVSNRPSGVSNRFSGSKSGNTASLTISGLQVEDEADYYCSSYTNNNTRVFGTGTKVTVL

Each binder was assayed against T1, SARS-COV-2 RBD (SARS-COV-2, UniProt P0DTC2 319-539) (assay: ELISA, RBD coated on plate).
T1 construct: also called WT RBD

| Binder | EC50 |
| --- | --- |
| B1 | 3.57 ng/mL |
| B2 | 0.95 ng/mL |
| B3 | 1.56 ng/mL |
| B4 | 0.97 ng/mL |
| B5 | 2.63 ng/mL |
| B6 | 3.62 ng/mL |
| B7 | 0.81 ng/mL |
| B8 | 2.58 ng/mL |
| B9 | 4.72 ng/mL |
| B10 | 2.86 ng/mL |
| B11 | 1.8 ng/mL |
| B12 | 1.92 ng/mL |
| B13 | 2.13 ng/mL |
| B14 | 2.59 ng/mL |
| B15 | 1.71 ng/mL |
| B16 | 3.13 ng/mL |
| B17 | 3.82 ng/mL |
| B18 | 2.08 ng/mL |
| B19 | 3.26 ng/mL |
| B20 | 2.33 ng/mL |

The binders below were run against SARS-COV-2 RBD (SARS-COV-2, UniProt P0DTC2 319-539) (assay: ELISA, RBD coated).

| Binder | EC50 |
| --- | --- |
| B21 | 7 ng/mL |
| B22 | 193 ng/mL |
| B23 | 1.65 ng/mL |
| B24 | 1.23 ng/mL |
| B25 | 1.53 ng/mL |
